According to patent publication US20050282739A1 (PALATIN TECHNOLOGIES, published 2005):
Where two headings read alike, the source gives them in different places. Square brackets hold non-standard residues; d marks the D form. Ends that are not written are not given here. Nle = CCCC[C@H](N)C(=O)O

Legend:
[1] = target: T1, human melanocortin-5 receptor (hMC5-R) (human, UniProt P33032 1-325); test: 125I-NDP-α-MSH competition, hMC5-R membranes
T1 construct: whole, on cells; membranes prepared from hMC5-R cells were used; also called Melanocortin Receptor 5
Procedure: (§1) The competitive inhibition binding assay was conducted using membranes prepared from hMC3-R, hMC4-R, hMC5-R, and B-16 mouse melanoma cells (containing MC1-R) using 0.4 nM ¹²⁵I-NDP-alpha-MSH (New England Nuclear, Boston, Mass., USA) in 50 mM HEPES buffer containing 1 mM MgCl₂, 2 mM CaCl₂, and 5 mM KCl, at pH 7.2. […] Incubation was for 90 minutes at room temperature, after which the assay mixture was filtered and the membranes washed three times with ice cold buffer. The filter was dried and counted in a gamma counter for remaining radioactivity bound to the membranes. 100% specific binding was defined as the difference in radioactivity (cpm) bound to cell membranes in the absence and presence of 1 μM α-MSH. […] Each assay was conducted in triplicate and the actual mean valves are described.
(§2) The first unnumbered peptide in Table 5 is the parent polypeptide, which is a γ-MSH analog specific for melanocortin receptors. The methods and assays set forth in Example 1 were followed.

[2] = target: T2, human melanocortin-3 receptor (hMC3-R) (human, UniProt P41968 1-323); test: 125I-NDP-α-MSH competition, hMC3-R membranes
T2 construct: whole, on cells; membranes prepared from hMC3-R cells were used; also called Melanocortin Receptor 3
Procedure: as §1, §2

[3] = target: T3, melanocortin-1 receptor (MC1-R) of B-16 mouse melanoma cells (mouse, UniProt Q01727 1-315); test: 125I-NDP-α-MSH competition, B-16 membranes
T3 construct: whole, on cells; membranes prepared from the cells were used; also called Melanocortin Receptor 1
Procedure: as §1, §2

[4] = target: T4, human melanocortin-4 receptor (hMC4-R) (human, UniProt P32245 1-332); test: 125I-NDP-α-MSH competition, hMC4-R membranes
T4 construct: whole, on cells; membranes prepared from hMC4-R cells were used; also called Melanocortin Receptor 4
Procedure: as §1, §2

[5] = target: T2, human melanocortin-3 receptor (hMC3-R); test: 125I-NDP-α-MSH competition, hMC3-R membranes; remark: listed apart in the source
Procedure: as §1
(§3) The first unnumbered peptide in Table 3 is the parent polypeptide, which is a Nle³, D-Phe⁶ substituted γ-MSH analog specific for melanocortin receptors. The methods and assays set forth in Example 1 were followed.

[6] = target: T4, human melanocortin-4 receptor (hMC4-R); test: 125I-NDP-α-MSH competition, hMC4-R membranes; remark: listed apart in the source
Procedure: as §1, §3

[7] = target: T1, human melanocortin-5 receptor (hMC5-R); test: 125I-NDP-α-MSH competition, hMC5-R membranes; remark: listed apart in the source
Procedure: as §1, §3

[8] = target: T3, melanocortin-1 receptor (MC1-R) of B-16 …; test: 125I-NDP-α-MSH competition, B-16 membranes; remark: listed apart in the source
Procedure: as §1, §3

T2 sequence (P41968 whole entry): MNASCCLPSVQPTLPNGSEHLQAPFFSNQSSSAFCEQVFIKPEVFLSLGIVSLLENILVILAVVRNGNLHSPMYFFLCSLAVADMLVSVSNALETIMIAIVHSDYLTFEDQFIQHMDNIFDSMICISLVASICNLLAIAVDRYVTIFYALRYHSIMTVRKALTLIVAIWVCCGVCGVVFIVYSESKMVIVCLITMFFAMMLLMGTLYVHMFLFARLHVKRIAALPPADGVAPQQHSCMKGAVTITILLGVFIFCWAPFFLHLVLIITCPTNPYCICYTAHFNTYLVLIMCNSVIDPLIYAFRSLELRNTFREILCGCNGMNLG
T3 sequence (Q01727 whole entry): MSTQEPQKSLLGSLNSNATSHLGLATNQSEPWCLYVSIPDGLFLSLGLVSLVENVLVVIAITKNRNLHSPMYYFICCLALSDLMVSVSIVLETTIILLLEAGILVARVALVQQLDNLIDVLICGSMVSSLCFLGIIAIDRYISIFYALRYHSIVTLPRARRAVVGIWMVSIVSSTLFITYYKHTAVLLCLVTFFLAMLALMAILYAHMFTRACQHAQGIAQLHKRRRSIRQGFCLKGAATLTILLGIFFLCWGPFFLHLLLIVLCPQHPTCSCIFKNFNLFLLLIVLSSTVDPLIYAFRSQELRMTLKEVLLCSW
T1 sequence (P33032 whole entry): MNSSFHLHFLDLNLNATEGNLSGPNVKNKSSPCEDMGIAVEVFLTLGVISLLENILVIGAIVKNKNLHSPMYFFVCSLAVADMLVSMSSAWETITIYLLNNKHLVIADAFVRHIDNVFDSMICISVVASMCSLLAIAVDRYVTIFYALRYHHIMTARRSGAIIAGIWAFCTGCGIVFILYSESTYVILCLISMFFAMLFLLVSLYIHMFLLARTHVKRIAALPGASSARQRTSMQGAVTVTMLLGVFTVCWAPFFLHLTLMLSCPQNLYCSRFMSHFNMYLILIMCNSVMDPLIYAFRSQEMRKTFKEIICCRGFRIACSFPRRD
T4 sequence (P32245 whole entry): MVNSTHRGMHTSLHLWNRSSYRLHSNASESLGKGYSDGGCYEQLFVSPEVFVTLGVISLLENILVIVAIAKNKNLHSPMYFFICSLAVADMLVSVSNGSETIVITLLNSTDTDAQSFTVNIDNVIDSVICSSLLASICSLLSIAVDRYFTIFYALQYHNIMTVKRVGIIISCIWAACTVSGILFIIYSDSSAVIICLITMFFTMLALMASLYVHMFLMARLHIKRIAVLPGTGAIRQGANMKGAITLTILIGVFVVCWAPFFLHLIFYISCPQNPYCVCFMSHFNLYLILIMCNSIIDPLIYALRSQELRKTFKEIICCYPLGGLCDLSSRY

B1: metallopeptide 5-1 (peptide)
peptide: YV[Nle]GH[dF]RWDRC-NH2
modifications: also: oxorhenium(V) N3S1 chelate: C11 SG + backbone N of D9, R10, C11, bridge at 11 via Re(V)=O, other end not in the chain
- % Inhibition at 1 µM [1]: 98%
- % Inhibition at 1 µM [2]: 92%
- % Inhibition at 1 µM [3]: 101%
- % Inhibition at 1 µM [4]: 95%

B2: metallopeptide 5-2 (peptide)
peptide: YV[Nle]GH[dF]RWDCF-NH2
modifications: also: oxorhenium(V) N3S1 chelate: C10 SG + backbone N of W8, D9, C10, bridge at 10 via Re(V)=O, other end not in the chain
- % Inhibition at 1 µM [1]: 61%
- % Inhibition at 1 µM [2]: 39%
- % Inhibition at 1 µM [3]: 95%
- % Inhibition at 1 µM [4]: 58%

B3: metallopeptide 5-3 (peptide)
peptide: YV[Nle]GH[dF]RWCRF-NH2
modifications: also: oxorhenium(V) N3S1 chelate: C9 SG + backbone N of R7, W8, C9, bridge at 9 via Re(V)=O, other end not in the chain
- % Inhibition at 1 µM [1]: 100%
- % Inhibition at 1 µM [2]: 93%
- % Inhibition at 1 µM [3]: 100%
- % Inhibition at 1 µM [4]: 97%

B4: metallopeptide 5-4 (peptide)
peptide: YV[Nle]GH[dF]RCDRF-NH2
modifications: also: oxorhenium(V) N3S1 chelate: C8 SG + backbone N of F6, R7, C8, bridge at 8 via Re(V)=O, other end not in the chain
- % Inhibition at 1 µM [1]: 58%
- % Inhibition at 1 µM [2]: 11%
- % Inhibition at 1 µM [3]: 86%
- % Inhibition at 1 µM [4]: 18%

B5: metallopeptide 5-5 (peptide)
peptide: YV[Nle]GH[dF]CWDRF-NH2
modifications: also: oxorhenium(V) N3S1 chelate: C7 SG + backbone N of H5, F6, C7, bridge at 7 via Re(V)=O, other end not in the chain
- % Inhibition at 1 µM [1]: 28%
- % Inhibition at 1 µM [2]: 15%
- % Inhibition at 1 µM [3]: 67%
- % Inhibition at 1 µM [4]: 26%

B6: metallopeptide 5-6 (peptide)
peptide: YV[Nle]GHCRWDRF-NH2
modifications: also: oxorhenium(V) N3S1 chelate: C6 SG + backbone N of G4, H5, C6, bridge at 6 via Re(V)=O, other end not in the chain
- % Inhibition at 1 µM [1]: 21%
- % Inhibition at 1 µM [2]: 26%
- % Inhibition at 1 µM [3]: 74%
- % Inhibition at 1 µM [4]: 4%

B7: metallopeptide 3-9 (peptide)
peptide: YV[Nle]GCH[dF]RWDRF-NH2
modifications: also: oxorhenium(V) N3S1 chelate: C5 SG + backbone N of X3, G4, C5, bridge at 5 via Re(V)=O, other end not in the chain
- % Inhibition at 1 µM [5]: 69%
- % Inhibition at 1 µM [6]: 55%
- % Inhibition at 1 µM [7]: 67%
- % Inhibition at 1 µM [8]: 77%

B8: metallopeptide 3-10 (peptide)
peptide: YV[Nle]CGH[dF]RWDRF-NH2
modifications: also: Re(V)=O N3S1 chelate via V2 N, Nle3 N, Cys4 N and S (ReOCl3(PPh3)2)
- % Inhibition at 1 µM [5]: 78%
- % Inhibition at 1 µM [6]: 80%
- % Inhibition at 1 µM [7]: 86%
- % Inhibition at 1 µM [8]: 84%

B9: metallopeptide 3-11 (peptide)
peptide: YVC[Nle]GH[dF]RWDRF-NH2
modifications: bridge (positions not given here); not fully specified (bridges); printed as Tyr-Val-Cys-Nle-Gly-His-D-Phe-Arg-Trp-Asp-Arg-Phe-NH2.; also: oxorhenium(V) N3S1 complex
- % Inhibition at 1 µM [5]: 85%
- % Inhibition at 1 µM [6]: 82%
- % Inhibition at 1 µM [7]: 92%
- % Inhibition at 1 µM [8]: 95%
